Source: the nanobody polyreactivity screen of Harvey et al. (2022)

Test: yeast display, Sf9 membrane polyspecificity reagent, FACS + sequencing; frameworks hold sequencing errors
Procedure, shortened: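 Galactose-induced (36–48 hours) yeast carrying a synthetic nanobody display library were exposed to 10% biotinylated, detergent-solubilized Sf9 membrane reagent at 4 °C for 1 hour. FACS followed streptavidin microbead enrichment, using low and high (top ~1%) gates for expression (anti-HA) and reagent binding (streptavidin). Colony PCR, MiSeq 2 × 250 sequencing and CDR-length filtering followed. Labels for polyreactivity reflect the gate of origin.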

| Sequence | polyreactivity (PSR sort gate) |
| --- | --- |
| QVQLVESGGGLVQAGGSLRLSCAASGRTFVTYAMGWYRQAPGKERELVAAISKRGSRTYYADSVKGRFTISRDNAKNTVYLQMNSLKPEDTAVYYCNADPYRTSYDYWGQGTQVTVSS | high polyreactivity |
| QVQLVESGGGLVQAGGSLRLSCAASGRIFSSYAMGWYRQAPGKERELVAAISSRGGSTYYADSVKGRFTISRDNAKNTVYLQMNSLKPEDTAVNYCAKGLTALGDYWGQCTQVTVSS | high polyreactivity |
| QVQLVESGGGLVQAGGSLRLSCAASGNILFNNSMGWYRQAPGKERELVAAISRSAGSTYYADSVKGSFTISRDNEKNTVYLQMNRLKPEDTAVYYCAAQYFRRSGYWGQGTQVTVSS | high polyreactivity |
| QVQLVESGGGIVQAGGSLRLSCAASGRIFTRYVMGWYRQAPGKERELVAAITGRGTTTYYADSVKGRFTISRDNAKNTVYLKMNSLKPEDTAVYYCAATYYASNPQFTTNYGYWGQGTQVTVSS | high polyreactivity |
| QVQLVESGGGFVQAGGSLRLSCAASGFTFYRNAMGWYRQAPGKERELVAAITWSGTSTYYADSVKGRFTISRDNAKTTVYVQMNSLKPEDTAVYYCNTVGYRGRSNSRFYYWGQGTQVTVSS | high polyreactivity |
| QVQLVESGGGLVQAGGSLRLSCAASGGTFRNYAMGWYRQAPGKERELVAAITTGTITNYADSVKGRFTISRDNAKNTVYLQMNSLKPEDTAVYYCNAGAFYSDPYDYWGQGTQLTVSS | low polyreactivity |
| QVQLEESGGGLVQAGGILRLSCAFYYGIGWYRQATGKERELVAAINLGGGSTYYADSVKGLFTISRDNAKNTVYLQMNSLKPEDTAVYYGAADVGSRTYYVKYDYWGQGTEVTVSS | low polyreactivity |
| QVQLVESGGGLVQAGGSLRLSCAASGIIFSYYAMGWYIQAPGKERELVAAISSSGVSTNYADSVKGRFTISRDNAKNTVYLQMNSLKPEDTAVYYCNARGYYWYRPYVNSNGGYWGQGTQVTVSS | high polyreactivity |
| QVQLVESGGGLVQAGGSLRLSCAASGRTFLGYSMGWYRQAPAKERELVAAISGSCDRTYYADSVKGRFTISRDNAKHTVYLQMYSLKPEYTEVYYCNAVTVRYYASYYGRGMDYWGQGTQETVSS | high polyreactivity |
| QVQLVESGGGLVQAGGSLLLRCAASGRTFKNYAKGWSRQAPGKERELVAAISSGGGRTKYADSEKGRFTISRDNAKNSVYLQLNSLKPDDTAVYYCAAAFYYRDDYWGQGSQVTVSS | high polyreactivity |
| QVQLVESGGGLVQAGGSLRLSCAASGITFRYYAMGWYRQAPGKERELVAAISSGSSTYYADSVKGRFTISRDNAKNTVYLQMNSLKPEDTAVYYCAARTYTTSRATTVYKRLNYWGQGTQVTVSS | high polyreactivity |
| QVQLVESGGGLVQAGGSLRLSCAASGRIFARYAMGWYRQAPGTERELVASITRSGGSTYYADSVKGRFTISRDNAKNTVYLQMNSLKPEDTAVYYCAARYGRVRDVIPYDYWGQGTQVTVSS | high polyreactivity |
| QVQLVESGGALVQAGGSLRLSCAASGSTFNRYAMGWYRQAPGKERELVAAISASGGSTYYADSVKGRFTISRDNAKNTVYLQMNSLKPEDTAVYYCATLHYVGQEHDYWGQGTQVTVSS | low polyreactivity |
| QVQLVESGGGLVQAGGSLRLSSAASGIIFDYNAMGWYRQAPGKERELVAAISYSGDSTYYADSVKGRFTISRDNAKNTVYLQMNSLKPEDTAVYYCAAVIYFGWWYVYTEDDYWGQGTQVTVSS | high polyreactivity |
| QVQLVESGGCLVQAGGSLRLSCAASGLLFYFYAMGWYRQAPGKEREFVAAISSGGDTYYADSVKGRFTISRDNSKNTVYLQMNSLKPVDTAVYYCAVGTVYLTYRGYEYWGQGTQVTVSS | high polyreactivity |
| QVQLVESGGGLVQAGGSLRLSCAASGITFAYYVMGWYRPAPGKERELVAVISSRGSRTFYADSVKGRFTISRDNAKNTVYLQMNSLKPEDTAVYYCAADSTYSYYWGQGTQVTVSS | high polyreactivity |
| QVQLVESGGGLVQAGGSLRLSCAASGSIFDPYTMGWYRQAPGKERELVAAINWSGGSTYYADSVKGRCTISRDNAKNTVYLQINSLKPEDTAVSHCNADPHGYYGYGYDYWGQGTQVNVSS | low polyreactivity |
| QVQLVESGGGLVQAGGSLRLSCAASGSIFGLNAMGWYRQAPGKERELVAAINSDGDTYYADSVKGRFTISRDNAKNTVCLQMNSLKPEDTAVYYCAALQRRDHNGDYWGQGTQVTVSS | low polyreactivity |
| QVQLVESGGGLVQAGGSLRLSCAASGFTFDRNAMGWYRQAPGKERGLVAAISSSGGRTYYADSVKGRFTISRDNAKNTVYLQMNSLKPEDTAVYYCAATSSYSYDYWGQGTQVTVSS | high polyreactivity |
| QVKLVESGGGLVQAGGSLRLSCAASGRIFSYNAMGGYRPEPGKESEVVAAMSDGGGRTYYADSVKGRFTISRDNAKNTVYVQMNSLKPEDTAVYYCAARYSVYYFGQRNGRYGYWGQGTQVTVSS | high polyreactivity |
| QVQHVESRGGIVQAGGSLRLSCAASGFTFAYYAMGRYRQAPGKERELVAAINYSGGSTYYADSVKGRFTISRDNAKNTVYLQMNSLKPEDTAVYYCATEYYRYDGSSYDYWGQGTQVTVSS | high polyreactivity |
| QVQLVESGGGLVQAGGSLRLSCAASGIIFLEYAMGWYRQAPGKERELVAAISSDDGSSTYYADSVKGRFTISRDNAKNTVYLKMNSLKPEDTAVYYCAAYGGGGYYYDYEYWGQGTQVTVSS | high polyreactivity |

| Sequence | polyreactivity (PSR sort gate) |
| --- | --- |
| QVQLVESGVGLVQAAGSLRLSCAASGSIFPDNAMGWSRQAPGKERELVAAIDKGTGSTNYADSVKGRFTISRDNAKNTVYLQMNSLKPEDTAVYYCATYVVTLYWWYTYDYWGQGTQVTVSS | low polyreactivity |
| QVQLVESGGGLVQAGGSLRLSCAASGRTFVRNAMGWYRQAPGKERELVAAISSIGDSTYYADSVKGRFTISRDNAKNTVYLQMNSLKPEDTAVYYWAAEWVTSYYNYYHWGQGTLVTVSS | low polyreactivity |
| QVQLVESGGGLVQAGGSLRLSCAASGSIFPDNAMGWDRQAPGKERELVAAITSGGGTYYADSVKGRFTISRDNAKNTVYLQMNSLKPEDTAVYYCNTEDYTQYEPGYYPPNYYWGQGTQVTVSS | low polyreactivity |
| QVQLVESGGGLVQAGGSLRLSCAASGRTFNTNAMGWYRQAPGKERELVAAISGSGVRTYYADSVKGRFTISRDNAKNTVYLQMNSLKPEDTAVYYCAARGQGGPYNYWGQGTQVTVSS | high polyreactivity |
| QVQLVESGGGLVQAGGSLRLSCAASGSTDRYYVMGWYRQAPGKERDLVAGISYRGGTTYYADSVKGRFTISRDNAKNTVYLQMNRLKPEDTAVYYCNAETAAAQASYDRLYVLLDYWGQGTQVTVSS | low polyreactivity |
| QVQLVESGGGLVQAGGSLRLSCAASGLTFGGYTMGWYRQAPGKERELVAAITSGGSTYYADSVKGRFTISRDNAKNTVYLQMNSLKPEDTAVYYCAARVRGWPVSKFGYWGQGTQVTVSS | high polyreactivity |
| QVQLVESGGGLVQAGGSLRLSCAASGRTFHYYAMGWYRQAPGKERELVAAITSSGGSTYYADSVKGRFTISRDNANNTVYLQMNSLKPEDTAVYYFNAYSSYIKYDYWGQGTQVTVSS | high polyreactivity |
| QVQLVESGGGLVQAGGSLRLSCAASGSIFVDYAMGWYRQAPGKERELVAAITSTGSTTYADSVKGRFTISRDNAKNTVYLQMNSLKPEDTAVYYCAASFRWYGTVRYPYEMYYWGQGTQVTVSS | low polyreactivity |
| QVQLVESGGGLVQAGGSLRLSCAASGRIFGRNAMGWYRQAPGKERELVAAISSSGRTYYADSVKGRFTISRDNAKNTVYLQMNSLKPEDTAVYYCAAYGYSWGQGTQVTVSS | high polyreactivity |
| QVQLVESGGGLVQAGGSLRLSCAASGRIFQYNVIGWYRQARWKERELVAAISSGGNTYYADSVKGRFTISRDNAKNTVYLQMNSLKPEDTSFYYCAADHYVPWPNYDYDYWGQGTQETVSS | low polyreactivity |
| QVQLVESGGGLVQAGGSLRLSCAASGSTFKQYAMGWYRQAPGKERELVAAIDRGGSTYYADSVKGRFTNSRDNAKNTVYLQMNSLKPEDTAVYFCAARFVQYLYAYDYWGQGTKVTVSS | low polyreactivity |
| QVQLVESGGGLVQAGGSLRLSCAASGFIFYHYAIGWYRQEPGKERELVAAISGRGGSTYYADSVKGRFTISRDNAKNSVYLQMNSLKPEDTAVYYCSTDYSRTFDYWGQGTQVTVSS | high polyreactivity |
| QVQLVESGGGLVQARGSLRLSCAASGITFYFNAMGWYRQAPGKERELVAVITSGGSTNYADSVKGRFTISRDNAKNTVYLQMISLKPEDTAVYYCATDKSYSSWSAQYDYWRQGTQVTVSS | low polyreactivity |
| RVQLVESGGGLVQAGGSLRLSCAASGLIFYYNAMVWYRQAPGKERELVAAISTGGSTNYADSVKGRFTISRYNAKNTVYLQMNSLKPEDTAVYYCAAGTRKPYGYKMYYWGQGTQVTVSS | high polyreactivity |
| QVQLVESGGGLVQAGGSLRLSCAASGSSFPVNGIGWYRQAPGKERELVAVITDSDGSTYYADSVKGRFTISRDNAKNTVYLQMNSLKPEDTAVYYCAADDYAYSYGYWLTYDYWGQGTQVTVSS | low polyreactivity |
| QVQLVDSGAGLVQAGGSLRLSCPASGRIFAVNAMGWYRKAPGKERELVAAINGGGSTNYADSVKGRFTISRDNAKNTVYLQMNSLKPQDTAVYYCAADVGWRSQTRGYYWGQGTQVTVSS | high polyreactivity |
| QDQLVESGGGLVQAGGSLRLSCAASGRTFWVYAMGWYRQAPGKERELVAAIRRGGITNYADSVKGRFTISRDNAKNTVYLQMNSLKPEDTAVYYCATDNYGYLTRYYYWGQGTQVTVSS | low polyreactivity |
| QDQLVESGGGLVQEGGSLRLSCAASGSTFPYNAMGWYRQAPGKERELVAAITRRAGRTYYADSVKGRFTISRDNAKNTVYLQLNSLKTEDTAVYYCAKSYQRGVYHYVYWGQVTQVTVSS | high polyreactivity |
| QVQLVESGGGLVQAGGSLRLSCAASGSTFDYNAMGGYRQAPGKERELVAAISRGGNTYYADSVKGRFTISRDNAKNTVYLQMNSLKPEDTAVYYCAKDSYGSYRFVRNRQKAYGYWGQGTQVTVSS | low polyreactivity |
| QVQLVESGGGLVQAGGSLRLSCAASGRISWVYAKGWYRQPPGKERELVAAITFSGGSTYYADSVKGRFTISSDNEKNTVYLQMNSLKPEDTAVYYCAADVLAIYSHRYYRYDSWGQGTQVTVSS | high polyreactivity |
| QVQLVESGGGLVQAVGSLRLSCAASGRTFNSYTMGWYRQAPGKERELVAAISSGGSTTYADSVKGRFTISRDNAKNTVYLQMNSLKPEDTAVYYCAAGLVYRGYRRDYWGQGTQVTVSS | low polyreactivity |
